The record followed here is patent US20260069689A1.

In assay [1] the target is T1, human CD20 on Jurkat cells (human) (UniProt P11836).
T1 sequence: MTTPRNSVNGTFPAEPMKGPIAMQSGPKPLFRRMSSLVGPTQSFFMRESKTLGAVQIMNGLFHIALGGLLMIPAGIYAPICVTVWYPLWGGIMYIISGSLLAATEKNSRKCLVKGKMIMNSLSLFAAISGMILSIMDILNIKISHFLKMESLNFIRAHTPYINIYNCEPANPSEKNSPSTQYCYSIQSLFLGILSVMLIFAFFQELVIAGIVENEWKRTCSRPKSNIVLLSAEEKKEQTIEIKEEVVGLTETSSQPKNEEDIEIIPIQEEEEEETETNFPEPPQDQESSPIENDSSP
Briefly: cell-based or functional assay.

For assay [2], the target named is full-length SARS-CoV-2 spike protein (Wuhan-Hu-1) on Jurkat/hCD20 cells (SARS-CoV-2) (UniProt P0DTC2). Briefly: cell-based or functional assay.
Another assay deals with hACE-2-10His (human) (UniProt Q9BYF1). Nature of the assay: ELISA, hACE-2-10His coated on the plate.
In assay [3] the target is human FcγR3a 176Val allotype receptor (human) (UniProt P08637). Briefly: cell-based or functional assay.

Regarding IgG1 isotype control (antibody), in assay [1], the Max ADCP (%), MDM donor #1, Jurkat/hCD20 cells was determined as 16.9%; the Max ADCP (%), MDM donor #2, Jurkat/hCD20 cells is 14.6%; the Max cytotoxicity (%), ADCC, NK donor #1, Jurkat/hCD20 cells stood at 0.7%; the Max cytotoxicity (%), ADCC, NK donor #2, Jurkat/hCD20 cells was found to be 6.4%. Further, in assay [1], the Max cytotoxicity (%), ADCC, NK donor #3, Jurkat/hCD20 cells was determined as 0.5% and the Max cytotoxicity (%), ADCC, pooled primary NK cells, Jurkat/hCD20 cells came to 0.6%. Moreover, in assay [2], the Max ADCP (%), MDM donor #1, Jurkat/hCD20/SARS-CoV-2 S FL cells was found to be 13.1%; the Max ADCP (%), MDM donor #2, Jurkat/hCD20/SARS-CoV-2 S FL cells stood at 9.6%; the Max cytotoxicity (%), ADCC, NK donor #1, Jurkat/hCD20/SARS-CoV-2 S FL cells is 1.8%; the Max cytotoxicity (%), ADCC, NK donor #2, Jurkat/hCD20/SARS-CoV-2 S FL cells was found to be 0%. In addition, in assay [2], the Max cytotoxicity (%), ADCC, NK donor #3, Jurkat/hCD20/SARS-CoV-2 S FL cells is 0%.

SARS-CoV-2 RBD.mmh: the EC50 in the assay with hACE-2-10His (human) worked out at 0.3 nM.

In assay [2], casirivimab + imdevimab registered an EC50 (M) of ADCC, NK donor #3, Jurkat/hCD20/SARS-CoV-2 S FL cells of 3.6e-11 M; an EC50 (M) of ADCP, MDM donor #1, Jurkat/hCD20/SARS-CoV-2 S FL cells of 1.2e-10 M; an EC50 (M) of ADCP, MDM donor #2, Jurkat/hCD20/SARS-CoV-2 S FL cells of 5.78e-11 M; a Max ADCP (%), MDM donor #1, Jurkat/hCD20/SARS-CoV-2 S FL cells of 49.5%. In assay [2], this substance registered a Max ADCP (%), MDM donor #2, Jurkat/hCD20/SARS-CoV-2 S FL cells of 48.2%; a Max cytotoxicity (%), ADCC, NK donor #1, Jurkat/hCD20/SARS-CoV-2 S FL cells of 1.6%; a Max cytotoxicity (%), ADCC, NK donor #2, Jurkat/hCD20/SARS-CoV-2 S FL cells of 4.1%; a Max cytotoxicity (%), ADCC, NK donor #3, Jurkat/hCD20/SARS-CoV-2 S FL cells of 15.4%.

For the substance mAb10933 (antibody), in assay [1], the Max ADCP (%), MDM donor #1, Jurkat/hCD20 cells was determined as 14%; the Max ADCP (%), MDM donor #2, Jurkat/hCD20 cells was determined as 11.5%; the Max cytotoxicity (%), ADCC, NK donor #1, Jurkat/hCD20 cells worked out at 4.7%; the Max cytotoxicity (%), ADCC, NK donor #2, Jurkat/hCD20 cells was 3.6%. The Max cytotoxicity (%), ADCC, NK donor #3, Jurkat/hCD20 cells in assay [1] came out at 1.2%. In addition, in assay [2], the EC50 (M) of ADCC, NK donor #3, Jurkat/hCD20/SARS-CoV-2 S FL cells worked out at 4.89e-11 M; the EC50 (M) of ADCP, MDM donor #1, Jurkat/hCD20/SARS-CoV-2 S FL cells is 9.7e-12 M; the EC50 (M) of ADCP, MDM donor #2, Jurkat/hCD20/SARS-CoV-2 S FL cells was 2.23e-11 M; the EC50 [M] of ADCP, macrophages, Jurkat/hCD20/SARS-CoV-2 spike cells is 3.88e-11 M. Further, in assay [2], the Max % ADCP, macrophages, Jurkat/hCD20/SARS-CoV-2 spike cells stood at 33.1%; the Max ADCP (%), MDM donor #1, Jurkat/hCD20/SARS-CoV-2 S FL cells turned out to be 28.3%; the Max ADCP (%), MDM donor #2, Jurkat/hCD20/SARS-CoV-2 S FL cells is 28.6%; the Max cytotoxicity (%), ADCC, NK donor #1, Jurkat/hCD20/SARS-CoV-2 S FL cells was determined as 1.4%. In assay [2], this substance came in with a Max cytotoxicity (%), ADCC, NK donor #2, Jurkat/hCD20/SARS-CoV-2 S FL cells of 5% and a Max cytotoxicity (%), ADCC, NK donor #3, Jurkat/hCD20/SARS-CoV-2 S FL cells of 11.1%. For the same substance, in assay [3], the EC50 (M), Jurkat/CD20/spike came out at 6.47e-10 M; the Fold induction, Jurkat CD20 was determined as 1.1 fold; the Fold induction, Jurkat/CD20/spike came out at 2.9 fold.

In assay [1], mAb10987 (antibody) showed a Max ADCP (%), MDM donor #1, Jurkat/hCD20 cells of 14.8%; a Max ADCP (%), MDM donor #2, Jurkat/hCD20 cells of 10.7%; a Max cytotoxicity (%), ADCC, NK donor #1, Jurkat/hCD20 cells of 3.9%; a Max cytotoxicity (%), ADCC, NK donor #2, Jurkat/hCD20 cells of 1.9%. In assay [2], this substance displayed an EC50 (M) of ADCC, NK donor #1, Jurkat/hCD20/SARS-CoV-2 S FL cells of 7.42e-10 M; an EC50 (M) of ADCC, NK donor #2, Jurkat/hCD20/SARS-CoV-2 S FL cells of 5.05e-09 M; an EC50 (M) of ADCC, NK donor #3, Jurkat/hCD20/SARS-CoV-2 S FL cells of 6.44e-11 M; an EC50 (M) of ADCP, MDM donor #1, Jurkat/hCD20/SARS-CoV-2 S FL cells of 2.91e-11 M. In assay [2], this substance returned an EC50 (M) of ADCP, MDM donor #2, Jurkat/hCD20/SARS-CoV-2 S FL cells of 1.98e-11 M; an EC50 [M] of ADCP, macrophages, Jurkat/hCD20/SARS-CoV-2 spike cells of 3.19e-11 M; a Max % ADCP, macrophages, Jurkat/hCD20/SARS-CoV-2 spike cells of 36.3%; a Max ADCP (%), MDM donor #1, Jurkat/hCD20/SARS-CoV-2 S FL cells of 32.3%. Besides, in assay [2], the Max ADCP (%), MDM donor #2, Jurkat/hCD20/SARS-CoV-2 S FL cells is 30.4%; the Max cytotoxicity (%), ADCC, NK donor #1, Jurkat/hCD20/SARS-CoV-2 S FL cells was 8.1%; the Max cytotoxicity (%), ADCC, NK donor #2, Jurkat/hCD20/SARS-CoV-2 S FL cells worked out at 10.5%; the Max cytotoxicity (%), ADCC, NK donor #3, Jurkat/hCD20/SARS-CoV-2 S FL cells turned out to be 26.6%. This substance also showed an EC50 (M), Jurkat/CD20/spike in assay [3] of 4.71e-10 M.
